Measurements as given in publication PMC9482650, “Quantitative fragmentomics allow affinity mapping of interactomes” (Nature Communications, 2022).

Key:
Assay in all cases: holdup assay
Design in all cases: key: below the threshold = too weak to quantify, mostly under pKd 3.1 to 4
[1] = target: TJP2_1, Q9UDY2
[2] = target: Inadl_4, Q8NI35
[3] = target: T1, SHANK1, Q9Y566
T1 sequence (Q9Y566 658-767, limits assumed, looked up): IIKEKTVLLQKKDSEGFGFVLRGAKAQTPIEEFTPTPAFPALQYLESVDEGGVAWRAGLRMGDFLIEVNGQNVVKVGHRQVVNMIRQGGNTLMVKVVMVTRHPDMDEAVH

[4] = target: GRIP2_3, Q9C0E4
GRIP2_3, Q9C0E4, sequence (Q9C0E4 238-339): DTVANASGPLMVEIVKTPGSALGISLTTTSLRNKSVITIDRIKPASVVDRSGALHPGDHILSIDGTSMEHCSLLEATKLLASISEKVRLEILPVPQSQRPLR

[5] = target: T2, APBA1_2, Q02410
T2 sequence (Q02410 742-832, limits assumed, looked up): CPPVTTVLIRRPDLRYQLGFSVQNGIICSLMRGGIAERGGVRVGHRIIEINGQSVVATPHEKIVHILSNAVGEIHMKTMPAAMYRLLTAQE

[6] = target: T3, LRRC7, Q96NW7
T3 sequence (Q96NW7 1440-1537, limits assumed, looked up): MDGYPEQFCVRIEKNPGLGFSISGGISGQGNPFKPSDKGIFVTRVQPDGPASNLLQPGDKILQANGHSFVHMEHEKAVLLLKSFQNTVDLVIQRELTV

[7] = target: T4, DLG3_3, Q92796
T4 sequence (Q92796 374-475, limits assumed, looked up): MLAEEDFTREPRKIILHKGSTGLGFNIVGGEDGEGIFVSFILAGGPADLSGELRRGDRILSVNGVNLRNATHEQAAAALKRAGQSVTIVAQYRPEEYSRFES

[8] = target: T5, TJP3_3, O95049
T5 sequence (O95049 375-456, limits assumed, looked up): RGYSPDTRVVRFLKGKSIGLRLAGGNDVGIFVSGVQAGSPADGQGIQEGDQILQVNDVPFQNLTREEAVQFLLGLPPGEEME

[9] = target: T6, PDZD7_3, Q9H5P4
T6 sequence (Q9H5P4 857-944, limits assumed, looked up): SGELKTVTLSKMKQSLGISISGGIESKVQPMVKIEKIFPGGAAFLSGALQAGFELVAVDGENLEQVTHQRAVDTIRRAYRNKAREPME

[10] = target: T7, LNX2_3, Q8N448
T7 sequence (Q8N448 463-564, limits assumed, looked up): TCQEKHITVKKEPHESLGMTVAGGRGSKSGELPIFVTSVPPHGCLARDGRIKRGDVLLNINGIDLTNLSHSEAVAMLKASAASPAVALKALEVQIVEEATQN

[11] = target: FRMPD3, Q5JV73
FRMPD3, Q5JV73, sequence (Q5JV73 12-100): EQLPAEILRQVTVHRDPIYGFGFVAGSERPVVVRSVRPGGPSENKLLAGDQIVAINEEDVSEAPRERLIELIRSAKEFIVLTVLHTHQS

[12] = target: GRIP2_6, Q9C0E4
GRIP2_6, Q9C0E4, sequence (Q9C0E4 648-740): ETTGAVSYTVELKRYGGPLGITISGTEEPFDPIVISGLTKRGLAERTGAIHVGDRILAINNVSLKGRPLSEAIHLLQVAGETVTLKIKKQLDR

[13] = target: NHERF4_2, Q86UT5
NHERF4_2, Q86UT5, sequence (Q86UT5 220-308): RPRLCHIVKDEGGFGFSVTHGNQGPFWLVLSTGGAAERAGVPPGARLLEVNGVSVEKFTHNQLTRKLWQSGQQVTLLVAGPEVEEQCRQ

[14] = target: T8, NHERF3_1, Q5T2W1
T8 sequence (Q5T2W1 4-100, limits assumed, looked up): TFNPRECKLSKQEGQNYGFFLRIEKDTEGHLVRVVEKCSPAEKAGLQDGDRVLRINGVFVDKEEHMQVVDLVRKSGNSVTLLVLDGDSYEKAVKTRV

[15] = target: LIMK2, P53671
LIMK2, P53671, sequence (P53671 143-248): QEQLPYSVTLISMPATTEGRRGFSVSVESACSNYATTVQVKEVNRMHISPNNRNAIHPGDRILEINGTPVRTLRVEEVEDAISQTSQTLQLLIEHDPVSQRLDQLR

[16] = target: DLG1_3, Q12959
DLG1_3, Q12959, sequence (Q12959 457-571): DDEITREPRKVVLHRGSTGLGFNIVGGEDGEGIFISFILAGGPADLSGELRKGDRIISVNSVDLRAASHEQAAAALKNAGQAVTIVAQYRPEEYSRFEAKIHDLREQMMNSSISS

[17] = target: T9, APBA3_1, O96018
T9 sequence (O96018 389-490, limits assumed, looked up): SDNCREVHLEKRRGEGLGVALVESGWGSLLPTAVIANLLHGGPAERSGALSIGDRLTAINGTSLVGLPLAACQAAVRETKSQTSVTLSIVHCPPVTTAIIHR

[18] = target: T10, RHPN1, Q8TCX5
T10 sequence (Q8TCX5 508-602, limits assumed, looked up): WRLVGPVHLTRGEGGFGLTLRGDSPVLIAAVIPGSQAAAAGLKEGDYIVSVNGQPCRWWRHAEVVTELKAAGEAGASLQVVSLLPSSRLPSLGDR

[19] = target: NHERF2_2, Q15599
NHERF2_2, Q15599, sequence (Q15599 142-238): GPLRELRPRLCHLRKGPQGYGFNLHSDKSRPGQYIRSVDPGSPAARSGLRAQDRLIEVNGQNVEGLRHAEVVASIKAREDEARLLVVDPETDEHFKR

[20] = target: Inadl_8, Q8NI35
Inadl_8, Q8NI35, sequence (Q8NI35 1425-1530): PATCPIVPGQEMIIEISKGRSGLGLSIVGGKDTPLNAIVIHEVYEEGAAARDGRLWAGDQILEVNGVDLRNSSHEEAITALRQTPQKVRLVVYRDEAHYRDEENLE

[21] = target: CASK, O14936
CASK, O14936, sequence (O14936 487-570): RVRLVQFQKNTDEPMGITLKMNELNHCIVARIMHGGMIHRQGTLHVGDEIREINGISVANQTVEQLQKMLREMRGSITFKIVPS

[22] = target: DLG4_1, P78352
DLG4_1, P78352, sequence (P78352 62-152): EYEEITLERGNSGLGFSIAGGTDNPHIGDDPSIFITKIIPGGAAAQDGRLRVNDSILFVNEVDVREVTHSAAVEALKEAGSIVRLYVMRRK

[23] = target: LAP2, Q96RT1
LAP2, Q96RT1, sequence (Q96RT1 other isoform, or with tags, fused parts or gaps): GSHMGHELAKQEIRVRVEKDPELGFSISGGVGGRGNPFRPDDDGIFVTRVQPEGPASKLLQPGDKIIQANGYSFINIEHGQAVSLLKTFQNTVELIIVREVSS

[24] = target: LNX1_1, Q8TBB1
LNX1_1, Q8TBB1, sequence (Q8TBB1 261-371): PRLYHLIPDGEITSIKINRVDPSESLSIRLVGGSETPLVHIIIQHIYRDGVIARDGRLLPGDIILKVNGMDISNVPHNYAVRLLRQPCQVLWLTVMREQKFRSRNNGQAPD

[25] = target: FRMPD2_3, Q68DX3
FRMPD2_3, Q68DX3, sequence (Q68DX3 1073-1166): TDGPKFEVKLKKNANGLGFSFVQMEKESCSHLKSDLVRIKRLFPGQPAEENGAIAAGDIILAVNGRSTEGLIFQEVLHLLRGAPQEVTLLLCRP

[26] = target: T11, NHERF3_3, Q5T2W1
T11 sequence (Q5T2W1 238-333, limits assumed, looked up): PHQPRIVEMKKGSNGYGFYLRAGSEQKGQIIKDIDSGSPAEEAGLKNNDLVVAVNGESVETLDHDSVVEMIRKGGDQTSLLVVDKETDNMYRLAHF

[27] = target: GOPC, Q9HD26
[28] = plain residues with an end cap or a label only (N-terminal biotin on a linker: ttds)
[29] = plain residues with an end cap or a label only (N-terminal biotin on a linker: ahx)

Inadl_4, Q8NI35, sequence (Q8NI35 547-651): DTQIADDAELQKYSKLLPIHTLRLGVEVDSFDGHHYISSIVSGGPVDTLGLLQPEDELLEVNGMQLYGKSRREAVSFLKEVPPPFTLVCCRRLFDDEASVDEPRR
TJP2_1, Q9UDY2, sequence (Q9UDY2 24-128): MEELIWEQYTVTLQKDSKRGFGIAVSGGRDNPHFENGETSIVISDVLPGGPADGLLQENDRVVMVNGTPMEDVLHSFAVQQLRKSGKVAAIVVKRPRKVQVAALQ

RLQRRRETQV [HPV18-E6, P06463]
pKd [1, 28]: 3.89
pKd [2, 28]: below the threshold
pKd [3, 28]: below the threshold
pKd [4, 28]: below the threshold
pKd [5, 28]: below the threshold
pKd [6, 28]: 3.14
pKd [7, 28]: 5.44
pKd [8, 28]: below the threshold
pKd [9, 28]: 3.98
pKd [10, 28]: below the threshold
pKd [11, 28]: below the threshold
pKd [12, 28]: below the threshold
pKd [13, 28]: below the threshold
pKd [14, 28]: 4.05
pKd [15, 28]: below the threshold
pKd [16, 28]: 5.02
pKd [17, 28]: below the threshold
pKd [18, 28]: 3.63
pKd [19, 28]: below the threshold
pKd [20, 28]: 3.32
pKd [21, 28]: below the threshold
pKd [22, 28]: 5.11
pKd [23, 28]: 3.61
pKd [24, 28]: below the threshold
pKd [25, 28]: below the threshold
pKd [26, 28]: below the threshold

LSDPSVSTVV [GRIN1, Q05586;Q05586-2]
pKd [1, 29]: below the threshold
pKd [2, 29]: below the threshold
pKd [4, 29]: below the threshold
pKd [5, 29]: below the threshold
pKd [6, 29]: below the threshold
pKd [8, 29]: below the threshold
pKd [9, 29]: 4.54
pKd [10, 29]: below the threshold
pKd [11, 29]: below the threshold
pKd [12, 29]: below the threshold
pKd [13, 29]: below the threshold
pKd [14, 29]: below the threshold
pKd [15, 29]: below the threshold
pKd [16, 29]: below the threshold
pKd [17, 29]: below the threshold
pKd [18, 29]: 4.47
pKd [19, 29]: below the threshold
pKd [20, 29]: below the threshold
pKd [21, 29]: below the threshold
pKd [27, 29]: below the threshold
pKd [22, 29]: 4.1
pKd [23, 29]: below the threshold
pKd [24, 29]: 4.17
pKd [25, 29]: below the threshold
pKd [26, 29]: below the threshold

NDPAWDETNL [ARHGEF7, Q14155;Q14155-1]
pKd [1, 28]: below the threshold
pKd [2, 28]: below the threshold
pKd [3, 28]: 4.79
pKd [4, 28]: below the threshold
pKd [7, 28]: below the threshold
pKd [8, 28]: below the threshold
pKd [9, 28]: 4.24
pKd [10, 28]: below the threshold
pKd [12, 28]: below the threshold
pKd [13, 28]: below the threshold
pKd [14, 28]: 4.26
pKd [15, 28]: below the threshold
pKd [16, 28]: below the threshold
pKd [17, 28]: below the threshold
pKd [18, 28]: 4.6
pKd [19, 28]: 4.81
pKd [20, 28]: below the threshold
pKd [21, 28]: below the threshold
pKd [27, 28]: 4.13
pKd [22, 28]: below the threshold
pKd [23, 28]: 4.46
pKd [24, 28]: below the threshold
pKd [25, 28]: below the threshold
pKd [26, 28]: below the threshold

PSASCAVTAA [PDLIM4, P50479;P50479-2]
pKd [1, 29]: below the threshold
pKd [2, 29]: below the threshold
pKd [3, 29]: below the threshold
pKd [4, 29]: below the threshold
pKd [5, 29]: below the threshold
pKd [6, 29]: below the threshold
pKd [7, 29]: below the threshold
pKd [8, 29]: below the threshold
pKd [10, 29]: below the threshold
pKd [11, 29]: below the threshold
pKd [12, 29]: below the threshold
pKd [13, 29]: below the threshold
pKd [14, 29]: below the threshold
pKd [15, 29]: below the threshold
pKd [16, 29]: below the threshold
pKd [17, 29]: below the threshold
pKd [18, 29]: below the threshold
pKd [19, 29]: below the threshold
pKd [20, 29]: below the threshold
pKd [21, 29]: below the threshold
pKd [27, 29]: below the threshold
pKd [22, 29]: below the threshold
pKd [23, 29]: below the threshold
pKd [24, 29]: below the threshold
pKd [25, 29]: below the threshold
pKd [26, 29]: below the threshold

EMDRRPATVV [PLCB4, Q15147]
pKd [1, 28]: below the threshold
pKd [3, 28]: below the threshold
pKd [4, 28]: below the threshold
pKd [5, 28]: 3.79
pKd [6, 28]: below the threshold
pKd [7, 28]: 3.78
pKd [8, 28]: below the threshold
pKd [9, 28]: 5.03
pKd [10, 28]: below the threshold
pKd [11, 28]: 3.64
pKd [12, 28]: 3.67
pKd [13, 28]: below the threshold
pKd [15, 28]: 3.52
pKd [17, 28]: below the threshold
pKd [18, 28]: 3.74
pKd [19, 28]: below the threshold
pKd [21, 28]: below the threshold
pKd [27, 28]: 4.04
pKd [22, 28]: 4.13
pKd [23, 28]: below the threshold
pKd [24, 28]: 4.01
pKd [25, 28]: 4.01
pKd [26, 28]: below the threshold
